Laboratory results: patent US20220143153A1, “COMPOSITIONS AND METHODS FOR TREATING ACNE” (priority 2019, published 2022)

Test system: PBMCs
Assay: Cytokine secretion from PBMCs stimulated with nuclease-treated live C. acnes (ELISA)
Type: cell-based, human
Conditions: live C. acnes digested with nuclease at 37° C. for 1 hour, PBMCs stimulated 24 h
Experimental: FIGS. 3A-3D: PBMCs were stimulated with untreated, heat-killed (HK), Rnase I, or Dnase I treated live CA(HL5PA1), CH (HL110PA4), LPS, or 19 kD (TLR1/2L) for 24 h. Cytokine secretions were measured by ELISA.
Cells purification and culture. Whole blood was obtained from healthy donors who provided written informed consent (UCLA Institutional Review Board). PBMCs were isolated by Ficoll-Paque (Amersham Bioscience) density gradient centrifugation and cultured in RPMI 1640 (Gibco) supplemented with 10% fetal bovine serum (FBS) (Seradigm) at a density of 2.5×10^6/mL in a 24-well flat bottomed plate.
Bacterial treatment. Live bacteria were heat-killed at 95° C. for 10 minutes and cooled on ice before addition of bacteria to cell culture. Live bacteria were digested using RNase I (Promega) or DNase I (Invitrogen) and incubated at 37° C. for 1 hour. Nucleases were inactivated with 0.1% SDS.
Cytokine Quantification. Cell culture supernatants were harvested at 24 hours unless otherwise noted. Cytokines measured by sandwich ELISA using antibody pairs were as follows: IL-18, IL-1β, IFN-β (R&D Duoset), IFN-γ (BD), IL-6, IL-10, TNF-α (Invitrogen).

B1: RNase I: RNase I (Promega), enzyme that catalyzes the hydrolysis of RNA; used to digest live bacteria (protein, UniProt P21338 24-268, looked up)
Ribonuclease I: LALQAKQYGDFDRYVLALSWQTGFCQSQHDRNRNERDECRLQTETTNKADFLTVHGLWPGLPKSVAARGVDERRWMRFGCATRPIPNLPEARASRMCSSPETGLSLETAAKLSEVMPGAGGRSCLERYEYAKHGACFGFDPDAYFGTMVRLNQEIKESEAGKFLADNYGKTVSRRDFDAAFAKSWGKENVKAVKLTCQGNPAYLTEIQISIKADAINAPLSANSFLPQPHPGNCGKTFVIDKAGY
- IFN-γ secretion from PBMCs: eliminated
- IL-6 secretion from PBMCs: eliminated
- IL-10 secretion from PBMCs: eliminated
- TNF-α secretion from PBMCs: eliminated
- IFN-γ secretion from PBMCs (listed as RNase): abrogated
